System: fibrinolysis system of the blood
Assay: complex permittivity at 10 MHz of blood samples with fibrinolysis system promotor (tPA) and inhibitor (aprotinin)
Settings: blood sample of tPA=8 and aprotinin=0, FIG. 9
Protocol: In addition, for example, in the case where the fibrinolysis system is evaluated, examples of coagulation factors to be evaluated include plasminogen and plasmin. In that case, as a drug to be added to the blood sample, an activator or inhibitor of plasminogen or plasmin is usable. FIG. 9 is a diagram showing time-dependent changes in the real part (∈′) of the complex permittivity at 10 MHz of blood samples having different fibrinolysis system promotor (tPA) and fibrinolysis system inhibitor (aprotinin) concentrations.
For the evaluation of the fibrinolysis-system blood, for example, a value obtained by dividing the amplitude after 30 minutes from the time B shown in FIGS. 2A-2B by the amplitude at the time B (LI30: the source of clot firmness after a predetermined period of time from the maximum firmness accompanying fibrinolysis) can be used as an evaluation parameter.

B1: tPA: fibrinolysis system promotor (protein, UniProt P00750 36-562, looked up)
Tissue-type plasminogen …: SYQVICRDEKTQMIYQQHQSWLRPVLRSNRVEYCWCNSGRAQCHSVPVKSCSEPRCFNGGTCQQALYFSDFVCQCPEGFAGKCCEIDTRATCYEDQGISYRGTWSTAESGAECTNWNSSALAQKPYSGRRPDAIRLGLGNHNYCRNPDRDSKPWCYVFKAGKYSSEFCSTPACSEGNSDCYFGNGSAYRGTHSLTESGASCLPWNSMILIGKVYTAQNPSAQALGLGKHNYCRNPDGDAKPWCHVLKNRRLTWEYCDVPSCSTCGLRQYSQPQFRIKGGLFADIASHPWQAAIFAKHRRSPGERFLCGGILISSCWILSAAHCFQERFPPHHLTVILGRTYRVVPGEEEQKFEVEKYIVHKEFDDDTYDNDIALLQLKSDSSRCAQESSVVRTVCLPPADLQLPDWTECELSGYGKHEALSPFYSERLKEAHVRLYPSSRCTSQHLLNRTVTDNMLCAGDTRSGGPQANLHDACQGDSGGPLVCLNDGRMTLVGIISWGLGCGQKDVPGVYTKVTNYLDWIRDNMRP
  characteristics of time-dependent change of ∈′ at 10 MHz: exhibits similar characteristics to the blood of a patient with the fibrinolysis system promoted
